Patent US20170253633A1 (IMMATICS BIOTECHNOLOGIES, published 2017)
Non-standard residues stand in square brackets, D forms with d. No end group written: not given here. pT = C[C@@H](OP(=O)(O)O)[C@H](N)C(=O)O

Target: T1, HLA-A*02:01 (human)
T1 construct: MHC monomer first loaded with a UV-sensitive peptide, which is cleaved by UV and exchanged with the test peptide; captured on streptavidin plates; also called peptide-receptive MHC molecules
Assay: UV-ligand exchange + anti-b2m ELISA; ++ = peptide exchange yield >20%
From the text: (§1) Candidate peptides for T cell based therapies according to the present invention were further tested for their MHC binding capacity (affinity). The individual peptide-MHC complexes were produced by UV-ligand exchange, where a UV-sensitive peptide is cleaved upon UV-irradiation, and exchanged with the peptide of interest as analyzed. Only peptide candidates that can effectively bind and stabilize the peptide-receptive MHC molecules prevent dissociation of the MHC complexes. To determine the yield of the exchange reaction, an ELISA was performed based on the detection of the light chain (β2m) of stabilized MHC complexes. The assay was performed as generally described in Rodenko et al. (Rodenko et al., 2006).
(§2) 96 well MAXISorp plates (NUNC) were coated over night with 2 ug/ml streptavidin in PBS at room temperature, washed 4× and blocked forth at 37° C. in 2% BSA containing blocking buffer. Refolded HLA-A*02:01/MLA-001 monomers served as standards, covering the range of 15-500 ng/ml. Peptide-MHC monomers of the UV-exchange reaction were diluted 100 fold in blocking buffer. Samples were incubated for 1 h at 37° C., washed four times, incubated with 2 ug/ml HRP conjugated anti-β2m for 1 h at 37° C., washed again and detected with TMB solution that is stopped with […]. Absorption was measured at 450 nm. Candidate peptides that show a high exchange yield (preferably higher than 50%, most preferred higher than 75%) are generally preferred for a generation and production of antibodies or fragments thereof, and/or T cell receptors or fragments thereof, as they show sufficient avidity to the MHC molecules and prevent dissociation of the MHC complexes.

| peptide exchange yield [%] | Binder |
| --- | --- |
| 20 to 50 | KLAEISLGV (gene: DSG3) |
| 20 to 50 | IIDSSPTAL (gene: ATAD5) |
| 20 to 50 | L[pT]LAKLEKV (gene: C9orf156) [LULAKLEKV] |
| 20 to 50 | LLSEDFVSV (gene: SPATA20) |

Target: T1, HLA-A*02:01
Assay: UV-ligand exchange + anti-b2m ELISA; ++++ = peptide exchange yield >75%
From the text: as §1, §2

| peptide exchange yield [%] | Binder |
| --- | --- |
| > 75 | GLYSGEVLV (gene: WDR34) |
| > 75 | SLVDARFQL (gene: OSR1) |
| > 75 | RLLELLQEA (gene: PROM2) |
| > 75 | YLIGQHVTA (gene: FBXO21) |
